Patent publication US20200308295A1 (published 2020)

Target: T1, recombinant human C3d (human, UniProt P01024 996-1303, limits assumed)
T1 construct: domain: C3d; Also used for statements that speak only of C3d or human C3d; also called wild-type C3d
Test: radiolabelled antibody; method and antigen not stated

T1 sequence (P01024 996-1303 limits assumed): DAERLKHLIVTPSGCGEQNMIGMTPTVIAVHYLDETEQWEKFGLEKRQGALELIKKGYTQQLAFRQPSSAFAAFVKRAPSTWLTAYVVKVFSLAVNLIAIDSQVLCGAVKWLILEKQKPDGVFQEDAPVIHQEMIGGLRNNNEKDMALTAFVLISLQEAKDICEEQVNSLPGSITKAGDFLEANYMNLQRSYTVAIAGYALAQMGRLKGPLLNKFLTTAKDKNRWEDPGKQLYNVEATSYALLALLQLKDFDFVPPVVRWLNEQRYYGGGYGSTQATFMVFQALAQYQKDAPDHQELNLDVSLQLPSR

B1: mouse monoclonal antibody 3d29 (antibody, mouse IgG2a, V domains shown)
VH: EVQLQQSGPVLVKPGASVKMSCKASGYTFTDYYMNWVKQSHGKSLEWIGVINPYNGGTSYNQKFKGKATLTVDKSSRTAYMELNSLTSEDSAVYYCSRGGPYWGQGTTLTVSS
VL: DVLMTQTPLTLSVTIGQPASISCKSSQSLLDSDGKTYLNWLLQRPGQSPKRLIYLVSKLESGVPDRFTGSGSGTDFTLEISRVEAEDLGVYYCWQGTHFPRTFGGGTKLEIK
notes: Group I clone; Also used FITC-labelled, biotinylated, radiolabelled and conjugated to SPIO nanoparticles; told under assay; also called clone 29; C3d29
  Kd: 0.43 nM
